Reference: patent US20230158141A1 (YAFEI SHANGHAI BIOLOG MEDICINE SCIENCE AND TECHNOLOGY, published 2023)
Where two headings read alike, the source gives them in different places.

Experiments:
CTLA-4 [1] = molecular target: T1, CTLA-4 (UniProt P16410 36-162, limits assumed); experiment: ELISA, OD mutant/OD WT; ↓=less than 70%
T1 sequence (P16410 36-162 limits assumed): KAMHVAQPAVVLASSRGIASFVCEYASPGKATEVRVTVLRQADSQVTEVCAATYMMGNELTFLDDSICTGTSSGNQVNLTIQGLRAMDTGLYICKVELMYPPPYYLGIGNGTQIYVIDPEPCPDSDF

CTLA-4 [2] = molecular target: T2, CTLA-4 (UniProt P16410 36-162, limits assumed); experiment: ELISA; S47 on the Cys
T2 construct: also called CTLA-4 protein
T2 sequence (P16410 36-162 limits assumed): as above

CTLA-4 [3] = molecular target: T2, CTLA-4; experiment: ELISA; R4-1 on the Cys
CTLA-4 [4] = molecular target: T2, CTLA-4; experiment: ELISA; R4-1 on the Cys; remark: listed apart in the source
CTLA-4 [5] = molecular target: T1, CTLA-4; experiment: ELISA, conjugate vs WT antibody
PD-1 = PD-1 (UniProt Q15116 25-167, limits assumed); experiment: ELISA, conjugate vs WT antibody
Sequence of PD-1 (Q15116 25-167 limits assumed): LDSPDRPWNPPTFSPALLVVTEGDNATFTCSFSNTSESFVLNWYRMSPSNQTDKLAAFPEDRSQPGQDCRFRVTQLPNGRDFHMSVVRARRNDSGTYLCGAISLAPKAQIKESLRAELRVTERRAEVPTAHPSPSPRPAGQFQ

binding activity vs wild type (CTLA-4 [1]) [%] | Activity after S47 (40 kD) blocking (CTLA-4 [2]) [%] | Binding activity (CTLA-4 [3]) [%] | Binding activity (CTLA-4 [4]) [%] | binding activity (% of WT) (PD-1) [%] | Binder | further results
< 70 | – | – | – | – | anti-CTLA-4 antibody heavy chain D106C (antibody, human IgG1, kappa, V domains shown) VH: QVQLVESGGGVVQPGRSLRLSCAASGFTFSSYTMHWVRQAPGKGLEWVTFISYDGNNKYYADSVKGRFTISRDNSKNTLYLQMNSLRAEDTAIYYCARTGWLGPFCYWGQGTLVTVSS VL: not shown | –
– | 12 | 99 | 99 | – | Ipilimumab L31 Ser to Cys (antibody, V domains shown, chain 2 pos 32 (Kabat L31): introduced Cys carrying the conjugated group of the row (R4-1 or S47), written C) VH: QVQLVESGGGVVQPGRSLRLSCAASGFTFSSYTMHWVRQAPGKGLEWVTFISYDGNNKYYADSVKGRFTISRDNSKNTLYLQMNSLRAEDTAIYYCARTGWLGPFDYWGQGTLVTVSS VL: not shown | –
< 70 | – | – | – | – | anti-CTLA-4 antibody heavy chain K65C (antibody, human IgG1, kappa, V domains shown) VH: QVQLVESGGGVVQPGRSLRLSCAASGFTFSSYTMHWVRQAPGKGLEWVTFISYDGNNKYYADSVCGRFTISRDNSKNTLYLQMNSLRAEDTAIYYCARTGWLGPFDYWGQGTLVTVSS VL: not shown | –
– | 19 | 97 | 97 | – | Ipilimumab L50 Gly to Cys (antibody, V domains shown, chain 2 pos 51 (Kabat L50): introduced Cys carrying the conjugated group of the row (R4-1, R4-3 or S47), written C) VH: QVQLVESGGGVVQPGRSLRLSCAASGFTFSSYTMHWVRQAPGKGLEWVTFISYDGNNKYYADSVKGRFTISRDNSKNTLYLQMNSLRAEDTAIYYCARTGWLGPFDYWGQGTLVTVSS VL: not shown | –
– | – | – | – | – | anti-CTLA-4 antibody heavy chain D106C-R4-3 (antibody, human IgG1, kappa, V domains shown, R4-3 on Cys 106) VH: QVQLVESGGGVVQPGRSLRLSCAASGFTFSSYTMHWVRQAPGKGLEWVTFISYDGNNKYYADSVKGRFTISRDNSKNTLYLQMNSLRAEDTAIYYCARTGWLGPFCYWGQGTLVTVSS VL: not shown | binding activity (% of WT) (CTLA-4 [5]): 87.6%
– | 25 | 92 | 92 | – | Ipilimumab L51 Ala to Cys (antibody, V domains shown, chain 2 pos 52 (Kabat L51): introduced Cys carrying the conjugated group of the row (R4-1 or S47), written C) VH: QVQLVESGGGVVQPGRSLRLSCAASGFTFSSYTMHWVRQAPGKGLEWVTFISYDGNNKYYADSVKGRFTISRDNSKNTLYLQMNSLRAEDTAIYYCARTGWLGPFDYWGQGTLVTVSS VL: not shown | –
– | – | – | – | – | anti-CTLA-4 antibody heavy chain K58C-R4-7 (antibody, human IgG1, kappa, V domains shown, R4-7 on Cys 58) VH: QVQLVESGGGVVQPGRSLRLSCAASGFTFSSYTMHWVRQAPGKGLEWVTFISYDGNNCYYADSVKGRFTISRDNSKNTLYLQMNSLRAEDTAIYYCARTGWLGPFDYWGQGTLVTVSS VL: not shown | binding activity (% of WT) (CTLA-4 [5]): 87.6%
< 70 | – | – | – | – | anti-CTLA-4 antibody heavy chain Y53C (antibody, human IgG1, kappa, V domains shown) VH: QVQLVESGGGVVQPGRSLRLSCAASGFTFSSYTMHWVRQAPGKGLEWVTFISCDGNNKYYADSVKGRFTISRDNSKNTLYLQMNSLRAEDTAIYYCARTGWLGPFDYWGQGTLVTVSS VL: not shown | –
– | 11 | 92 | 92 | – | Ipilimumab L34 Ala to Cys (antibody, V domains shown, chain 2 pos 35 (Kabat L34): introduced Cys carrying the conjugated group of the row (R4-1 or S47), written C) VH: QVQLVESGGGVVQPGRSLRLSCAASGFTFSSYTMHWVRQAPGKGLEWVTFISYDGNNKYYADSVKGRFTISRDNSKNTLYLQMNSLRAEDTAIYYCARTGWLGPFDYWGQGTLVTVSS VL: not shown | –
< 70 | – | – | – | – | anti-CTLA-4 antibody heavy chain Y59C (antibody, human IgG1, kappa, V domains shown) VH: QVQLVESGGGVVQPGRSLRLSCAASGFTFSSYTMHWVRQAPGKGLEWVTFISYDGNNKCYADSVKGRFTISRDNSKNTLYLQMNSLRAEDTAIYYCARTGWLGPFDYWGQGTLVTVSS VL: not shown | –
– | 16 | 72 | 72 | – | Ipilimumab L52 Phe to Cys (antibody, V domains shown, chain 2 pos 53 (Kabat L52): introduced Cys carrying the conjugated group of the row (R4-1 or S47), written C) VH: QVQLVESGGGVVQPGRSLRLSCAASGFTFSSYTMHWVRQAPGKGLEWVTFISYDGNNKYYADSVKGRFTISRDNSKNTLYLQMNSLRAEDTAIYYCARTGWLGPFDYWGQGTLVTVSS VL: not shown | –
< 70 | – | – | – | – | anti-CTLA-4 antibody heavy chain K58C (antibody, human IgG1, kappa, V domains shown) VH: QVQLVESGGGVVQPGRSLRLSCAASGFTFSSYTMHWVRQAPGKGLEWVTFISYDGNNCYYADSVKGRFTISRDNSKNTLYLQMNSLRAEDTAIYYCARTGWLGPFDYWGQGTLVTVSS VL: not shown | –
– | 6 | 95 | 95 | – | Ipilimumab L33 Leu to Cys (antibody, V domains shown, chain 2 pos 34 (Kabat L33): introduced Cys carrying the conjugated group of the row (R4-1 or S47), written C) VH: QVQLVESGGGVVQPGRSLRLSCAASGFTFSSYTMHWVRQAPGKGLEWVTFISYDGNNKYYADSVKGRFTISRDNSKNTLYLQMNSLRAEDTAIYYCARTGWLGPFDYWGQGTLVTVSS VL: not shown | –
< 70 | – | – | – | – | anti-CTLA-4 antibody heavy chain Y60C (antibody, human IgG1, kappa, V domains shown) VH: QVQLVESGGGVVQPGRSLRLSCAASGFTFSSYTMHWVRQAPGKGLEWVTFISYDGNNKYCADSVKGRFTISRDNSKNTLYLQMNSLRAEDTAIYYCARTGWLGPFDYWGQGTLVTVSS VL: not shown | –
– | – | – | – | 83.9 | anti-PD-1 antibody 2 heavy chain A61C-R4-4 (antibody, human IgG4 S228P, kappa, V domains shown, R4-4 on Cys 61) VH: QVQLVESGGGVVQPGRSLRLDCKASGITFSNSGMHWVRQAPGKGLEWVAVIWYDGSKRYYCDSVKGRFTISRDNSKNTLFLQMNSLRAEDTAVYYCATNDDYWGQGTLVTVSS VL: EIVLTQSPATLSLSPGERATLSCRASQSVSSYLAWYQQKPGQAPRLLIYDASNRATGIPARFSGSGSGTDFTLTISSLEPEDFAVYYCQQSSNWPRTFGQGTKVEIKR | –
– | – | – | – | 107 | anti-PD-1 antibody 2 heavy chain S30C-R4-1 (antibody, human IgG4 S228P, kappa, V domains shown, R4-1 on Cys 30) VH: QVQLVESGGGVVQPGRSLRLDCKASGITFCNSGMHWVRQAPGKGLEWVAVIWYDGSKRYYADSVKGRFTISRDNSKNTLFLQMNSLRAEDTAVYYCATNDDYWGQGTLVTVSS VL: EIVLTQSPATLSLSPGERATLSCRASQSVSSYLAWYQQKPGQAPRLLIYDASNRATGIPARFSGSGSGTDFTLTISSLEPEDFAVYYCQQSSNWPRTFGQGTKVEIKR | –
– | – | – | – | 89.7 | anti-PD-1 antibody 2 heavy chain K57C-R4-7 (antibody, human IgG4 S228P, kappa, V domains shown, R4-7 on Cys 57) VH: QVQLVESGGGVVQPGRSLRLDCKASGITFSNSGMHWVRQAPGKGLEWVAVIWYDGSCRYYADSVKGRFTISRDNSKNTLFLQMNSLRAEDTAVYYCATNDDYWGQGTLVTVSS VL: EIVLTQSPATLSLSPGERATLSCRASQSVSSYLAWYQQKPGQAPRLLIYDASNRATGIPARFSGSGSGTDFTLTISSLEPEDFAVYYCQQSSNWPRTFGQGTKVEIKR | –
– | – | – | – | 92.1 | anti-PD-1 antibody 2 heavy chain K65C-R4-7 (antibody, human IgG4 S228P, kappa, V domains shown, R4-7 on Cys 65) VH: QVQLVESGGGVVQPGRSLRLDCKASGITFSNSGMHWVRQAPGKGLEWVAVIWYDGSKRYYADSVCGRFTISRDNSKNTLFLQMNSLRAEDTAVYYCATNDDYWGQGTLVTVSS VL: EIVLTQSPATLSLSPGERATLSCRASQSVSSYLAWYQQKPGQAPRLLIYDASNRATGIPARFSGSGSGTDFTLTISSLEPEDFAVYYCQQSSNWPRTFGQGTKVEIKR | –
– | – | – | – | 91.6 | anti-PD-1 antibody 2 heavy chain Y53C-R4-4 (antibody, human IgG4 S228P, kappa, V domains shown, R4-4 on Cys 53) VH: QVQLVESGGGVVQPGRSLRLDCKASGITFSNSGMHWVRQAPGKGLEWVAVIWCDGSKRYYADSVKGRFTISRDNSKNTLFLQMNSLRAEDTAVYYCATNDDYWGQGTLVTVSS VL: EIVLTQSPATLSLSPGERATLSCRASQSVSSYLAWYQQKPGQAPRLLIYDASNRATGIPARFSGSGSGTDFTLTISSLEPEDFAVYYCQQSSNWPRTFGQGTKVEIKR | –
– | – | – | – | 86.8 | anti-PD-1 antibody 2 heavy chain S32C-R4-1 (antibody, human IgG4 S228P, kappa, V domains shown, R4-1 on Cys 32) VH: QVQLVESGGGVVQPGRSLRLDCKASGITFSNCGMHWVRQAPGKGLEWVAVIWYDGSKRYYADSVKGRFTISRDNSKNTLFLQMNSLRAEDTAVYYCATNDDYWGQGTLVTVSS VL: EIVLTQSPATLSLSPGERATLSCRASQSVSSYLAWYQQKPGQAPRLLIYDASNRATGIPARFSGSGSGTDFTLTISSLEPEDFAVYYCQQSSNWPRTFGQGTKVEIKR | –
